Ends that are not written are not given here.

A short description of data set [1]: pH-dependent release of nickel from MAP peptides by absorption spectroscopy. Format: physicochemical. The conditions noted are these: FIG. 9; intensity at 415 nm with decreasing pH. How it is done:
The loss of absorbance intensity corresponds to loss of metal from the complex, as the absorption features that are observed for Ni-MAP are due to ligand to metal charge transfer (LMCT) bands and d to d transitions. By monitoring the intensity of one specific peak (415 nm for the pentapteptide) with decreasing pH, the percent of the complex remaining at each pH unit was calculated and plotted (FIG. 9).
pH release experiments were then performed (FIG. 16), and release curves were prepared for each of the six peptides (FIG. 17).

Data set [2] can be described thus: pH-dependent release of platinum from MAP peptides (absorption, NMR, MS). Format: physicochemical. The conditions noted are these: low pH (pH 2.47 with excess ammonium chloride in FIG. 10). How it is done: Because Pt is bound to ammonia and chloride ligands in the common inorganic complex cisplatin, the release experiment was also performed in the presence of excess ammonium chloride. […] Additionally, ^1H NMR of the GGNCC (SEQ ID NO.:1), and Pt-GGNCC (SEQ ID NO.:1) at low pH were all performed.
MS data was obtained at low pH when solvent (DMSO) was added to the peptide-metal complex before dropping the pH, to keep some of the species that result from metal release soluble. Although a small amount of a yellow precipitate formed, the peptide returned to the apo state and remained in solution as determined by MS (FIG. 12). By adding DMSO to the solution, a similar release experiment was performed using absorption spectroscopy. […] The loss of absorbance intensity corresponded to loss of metal from the complex. The loss of intensity was monitored at 315 nm, as this is a significant, yet unique, feature in the Pt-NCC spectral profile, and pH dependent release curve was prepared (FIG. 13).

As for “GNNCC: nickel complex of the pentapeptide GNNCC (SEQ ID NO.:2) (cysteine pairing not given here; also: nickel complex)”, the “pH range in which pH-dependent release of nickel occurs rapidly” value in data set [1] was 6-7 pH.

Turning to “Pt-GGNCC: platinum complex of the pentapeptide GGNCC (SEQ ID NO.:1) (cysteine pairing not given here; also: platinum complex)”, the “precipitation of the Pt-peptide complex at low pH” value in data set [2] is recorded as “Precipitation occurred”.

These data come from patent US20140037626A1, “Metal Abstraction Peptide With Release of Metal” (Echogen, Inc., priority 2012, published 2014).
